From patent publication US20240059799A1 (Pfizer, published 2024)

T1: recombinant human TL1A (human, UniProt O95150 71-251)
T1 construct: Homotrimeric cytokine; biotinylated with Sulfo-NHS-biotin where captured for SPR, coated unlabelled in ELISA, soluble in bioassays; also called TNFSF15
T1 chain: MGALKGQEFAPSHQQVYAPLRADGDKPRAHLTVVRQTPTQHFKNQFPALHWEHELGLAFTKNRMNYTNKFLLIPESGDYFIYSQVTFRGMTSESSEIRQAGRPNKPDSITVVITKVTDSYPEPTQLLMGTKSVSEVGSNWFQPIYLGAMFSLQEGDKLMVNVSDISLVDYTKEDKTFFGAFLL

T2: recombinant human TL1A (human, UniProt O95150 71-251)
T2 construct: homotrimer; biotinylated for SPR capture; the ELISA paragraphs say only 'recombinant TL1A'; also called TNFSF15
T2 chain: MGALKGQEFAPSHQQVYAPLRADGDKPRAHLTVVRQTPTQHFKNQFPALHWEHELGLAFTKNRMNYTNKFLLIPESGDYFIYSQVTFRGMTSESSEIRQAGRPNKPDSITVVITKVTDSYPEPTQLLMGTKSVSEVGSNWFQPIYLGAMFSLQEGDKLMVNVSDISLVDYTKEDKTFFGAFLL


Experiments:
recombinant human TL1A [1] = target: T1, recombinant human TL1A; test: competition ELISA, coated TL1A, competitor bio-TL1A-0002
Method: (§1) For this competition ELISA assay procedure, 96-well high binding plates (Corning, product number 3590) were coated with 1 μg/mL recombinant TL1A in 100 μL/well in Phospate Buffered Saline (PBS) overnight at 4° C. Plates were then blocked in PBS+0.02% casein solution and washed with PBS+0.05% Tween-20 following standard ELISA protocol. […] Plates were washed with PBS+0.05% Tween-20 following standard ELISA protocol, and Streptavidin-HRP (Southern Biotech, product number 7100-05) diluted to 1:10,000 in assay buffer was added to plates and incubated for 25-30 minutes at room temperature. Next, the plates were washed with PBS+0.05% Tween-20 following standard ELISA protocol, and then TMB substrate (BioFX Laboratories, catalog number TMBW-0100-01) was added to plates. Reactions were stopped after approximately 5 minutes by adding 0.18 M ortho-phosphoric acid to each well and absorbance was read at 450 nm.

recombinant human TL1A [2] = target: T1, recombinant human TL1A; test: cell-based or functional assay
recombinant human TL1A [3] = target: T2, recombinant human TL1A; test: competition ELISA vs bio-TL1A-0002
Method: as §1

Row | Bioactivity relative to TL1A-0002 (recombinant human TL1A [1]) | IC50 (recombinant human TL1A [1]) | TF-1 NF-κB reporter cell bioassay IC50 (recombinant human TL1A [2]) | TF-1 NF-κB reporter cell bioassay, Bioactivity relative to TL1A-0002 (recombinant human TL1A [2]) | Whole blood IFNγ assay IC50 (recombinant human TL1A [2]) | Whole blood IFNγ assay, Bioactivity relative to TL1A-0002 (recombinant human TL1A [2]) | Bioactivity relative to TL1A-0002 (recombinant human TL1A [3]) | IC50 (recombinant human TL1A [3]) | Binder
1 | 1.8 fold | 9 nM | 24.7 nM | 0.7 fold | – | – | – | – | TL1A-0275 (antibody, human IgG1, kappa, V domains shown, human IgG1 effector-function-minimized/kappa) VH: QVQLVQSGAEVKKPGASVKVSCKASGYDFSYYGISWVRQAPGQGLEWMGWISTYNTGTHYAPSLQGRVTMTTDTSTSTAYMELRSLRSDDTAVYYCARESYYGSGAHRGGMDVWGQGTTVTVSS VL: DIQMTQSPSSLSASVGDRVTITCRASQSVSSYLAWYQQKPGKAPKLLIYDASNRATGVPSRFSGSGSGTDFTLTISSLQPEDFATYYCQQRSNWPWTFGQGTKVEIKR
2 | 1.8 fold | 9 nM | – | – | 0.929 nM | 1.1 fold | – | – | TL1A-0291 (antibody, human IgG1, kappa, V domains shown, human IgG1 effector-function-minimized/kappa) VH: QVQLVQSGAEVKKPGASVKVSCKASGYDFTYYGVSWVRQAPGQGLEWMGWISTYNTGTHYAQKLQGRVTMTTDTSTSTAYMELRSLRSDDTAVYYCARESYYGSGAHRGGMDVWGQGTTVTVSS VL: DIQMTQSPSSLSASVGDRVTITCRASQSVSSYLAWYQQKPGKAPKLLIYDASNRATGVPSRFSGSGSGTDFTLTISSLQPEDFATYYCQQRSNWPWTFGQGTKVEIKR
3 | 2 fold | 10.1 nM | – | – | 0.993 nM | 1.2 fold | – | – | TL1A-0287 (antibody, human IgG1, kappa, V domains shown, human IgG1 effector-function-minimized/kappa) VH: QVQLVQSGAEVKKPGASVKVSCKASGYDFTYYGVSWVRQAPGQGLEWMGWISTYNDNTHYAQKLQGRVTMTTDTSTSTAYMELRSLRSDDTAVYYCARESYYGSGAHRGGMDVWGQGTTVTVSS VL: DIQMTQSPSSLSASVGDRVTITCRASQSVSSYLAWYQQKPGKAPKLLIYDASNRATGVPSRFSGSGSGTDFTLTISSLQPEDFATYYCQQRSNWPWTFGQGTKVEIKR
4 | 1.9 fold | 9.6 nM | 77.9 nM | 2.2 fold | 0.95 nM | 1.1 fold | – | – | TL1A-0292 (antibody, human IgG1, kappa, V domains shown, human IgG1 effector-function-minimized/kappa) VH: QVQLVQSGAEVKKPGASVKVSCKASGYDFTYYGVSWVRQAPGQGLEWMGWISTYNTVTHYAPSLQGRVTMTTDTSTSTAYMELRSLRSDDTAVYYCARESYYGSGAFRGGMDVWGQGTTVTVSS VL: DIQMTQSPSSLSASVGDRVTITCRASQSVSSYLAWYQQKPGKAPKLLIYDASNRATGVPSRFSGSGSGTDFTLTISSLQPEDFATYYCQQRSNWPWTFGQGTKVEIKR
5 | – | – | – | – | – | – | 1.2 fold | 5.5 nM | TL1A-0045 (antibody, human IgG1, kappa, V domains shown, IgG1/kappa; VH graft on IGHV1-46*01) VH: QVQLVQSGAEVKKPGASVKVSCKASGYDFTYYGISWVRQAPGQGLEWMGWISTYNGNTHYARMLQGRVTMTRDTSTSTVYMELSSLRSEDTAVYYCARENYYGSGAYRGGMDVWGQGTTVTVSS VL: EIVLTQSPATLSLSPGERATLSCRASQSVSSYLAWYQQKPGQAPRLLIYDASNRATGIPARFSGSGSGTDFTLTISSLEPEDFAVYYCQQRSNWPWTFGQGTKVEIKR
6 | 1.9 fold | 9.7 nM | – | – | 0.986 nM | 1.2 fold | – | – | TL1A-0293 (antibody, human IgG1, kappa, V domains shown, human IgG1 effector-function-minimized/kappa) VH: QVQLVQSGAEVKKPGASVKVSCKASGYDFTYYGVSWVRQAPGQGLEWMGWISTYNTVTHYAPSLQGRVTMTTDTSTSTAYMELRSLRSDDTAVYYCARESYYGSGAHRGGMDVWGQGTTVTVSS VL: DIQMTQSPSSLSASVGDRVTITCRASQSVSSYLAWYQQKPGKAPKLLIYDASNRATGVPSRFSGSGSGTDFTLTISSLQPEDFATYYCQQRSNWPWTFGQGTKVEIKR
7 | 1.6 fold | 8 nM | 96 nM | 2.8 fold | – | – | – | – | TL1A-0288 (antibody, human IgG1, kappa, V domains shown, human IgG1 effector-function-minimized/kappa; 96 used) VH: QVQLVQSGAEVKKPGASVKVSCKASGYDFTYYGVSWVRQAPGQGLEWMGWISTYNTGTHYAPSLQGRVTMTTDTSTSTAYMELRSLRSDDTAVYYCARESYYGSGAFRGGMDVWGQGTTVTVSS VL: DIQMTQSPSSLSASVGDRVTITCRASQSVSSYLAWYQQKPGKAPKLLIYDASNRATGVPSRFSGSGSGTDFTLTISSLQPEDFATYYCQQRSNWPWTFGQGTKVEIKR
8 | – | – | – | – | – | – | 0.9 fold | 3.9 nM | TL1A-0043 (antibody, human IgG1, kappa, V domains shown, IgG1/kappa; VL graft on IGKV3D-7*01) VH: QVQLVQSGAEVKKPGASVKVSCKASGYDFTYYGISWVRQAPGQGLEWMGWISTYNGNTHYARMLQGRVTMTTDTSTRTAYMELRSLRSDDTAVYYCARENYYGSGAYRGGMDVWGQGTTVTVSS VL: EIVMTQSPATLSLSPGERATLSCRASQSVSSYLAWYQQKPGQAPRLLIYDASNRATGIPARFSGSGSGTDFTLTISSLQPEDFAVYYCQQRSNWPWTFGQGTKVEIKR
9 | 1.8 fold | 9.1 nM | – | – | 0.82 nM | 1 fold | – | – | TL1A-0278 (antibody, human IgG1, kappa, V domains shown, human IgG1 effector-function-minimized/kappa) VH: QVQLVQSGAEVKKPGASVKVSCKASGYDFSYYGISWVRQAPGQGLEWMGWISTYNTVTHYAPSLQGRVTMTTDTSTSTAYMELRSLRSDDTAVYYCARESYYGSGAFRGGMDVWGQGTTVTVSS VL: DIQMTQSPSSLSASVGDRVTITCRASQSVSSYLAWYQQKPGKAPKLLIYDASNRATGVPSRFSGSGSGTDFTLTISSLQPEDFATYYCQQRSNWPWTFGQGTKVEIKR
10 | 1.6 fold | 8 nM | 56.5 nM | 1.6 fold | 0.942 nM | 1.1 fold | – | – | TL1A-0294 (antibody, human IgG1, kappa, V domains shown, human IgG1 effector-function-minimized/kappa) VH: QVQLVQSGAEVKKPGASVKVSCKASGYDFTYYGVSWVRQAPGQGLEWMGWISTYNTNTHYAPSLQGRVTMTTDTSTSTAYMELRSLRSDDTAVYYCARESYYGSGAFRGGMDVWGQGTTVTVSS VL: DIQMTQSPSSLSASVGDRVTITCRASQSVSSYLAWYQQKPGKAPKLLIYDASNRATGVPSRFSGSGSGTDFTLTISSLQPEDFATYYCQQRSNWPWTFGQGTKVEIKR
11 | 1.7 fold | 8.6 nM | – | – | 0.955 nM | 1.2 fold | – | – | TL1A-0285 (antibody, human IgG1, kappa, V domains shown, human IgG1 effector-function-minimized/kappa) VH: QVQLVQSGAEVKKPGASVKVSCKASGYDFTYYGVSWVRQAPGQGLEWMGWISTYNDNTHYAPSLQGRVTMTTDTSTSTAYMELRSLRSDDTAVYYCARESYYGSGAHRGGMDVWGQGTTVTVSS VL: DIQMTQSPSSLSASVGDRVTITCRASQSVSSYLAWYQQKPGKAPKLLIYDASNRATGVPSRFSGSGSGTDFTLTISSLQPEDFATYYCQQRSNWPWTFGQGTKVEIKR
12 | 2.8 fold | 14.2 nM | 43 nM | 1.2 fold | 0.81 nM | 1 fold | – | – | TL1A-0308 (antibody, human IgG1, kappa, V domains shown, human IgG1 effector-function-minimized/kappa) VH: QVQLVQSGAEVKKPGASVKVSCKASGYDFTYYGIGWVRQAPGQGLEWMGWISTYNTNTHYAPSLQGRVTMTTDTSTSTAYMELRSLRSDDTAVYYCARESYYGSGAFRGGMDVWGQGTTVTVSS VL: DIQMTQSPSSLSASVGDRVTITCRASQSVSSYLAWYQQKPGKAPKLLIYDASNRATGVPSRFSGSGSGTDFTLTISSLQPEDFATYYCQQRSNWPWTFGQGTKVEIKR
13 | 1.6 fold | 7.9 nM | – | – | 0.799 nM | 1 fold | – | – | TL1A-0289 (antibody, human IgG1, kappa, V domains shown, human IgG1 effector-function-minimized/kappa) VH: QVQLVQSGAEVKKPGASVKVSCKASGYDFTYYGVSWVRQAPGQGLEWMGWISTYNTGTHYAPSLQGRVTMTTDTSTSTAYMELRSLRSDDTAVYYCARESYYGSGAHRGGMDVWGQGTTVTVSS VL: DIQMTQSPSSLSASVGDRVTITCRASQSVSSYLAWYQQKPGKAPKLLIYDASNRATGVPSRFSGSGSGTDFTLTISSLQPEDFATYYCQQRSNWPWTFGQGTKVEIKR
14 | 1.6 fold | 8.2 nM | – | – | 0.914 nM | 1.1 fold | – | – | TL1A-0280 (antibody, human IgG1, kappa, V domains shown, human IgG1 effector-function-minimized/kappa) VH: QVQLVQSGAEVKKPGASVKVSCKASGYDFSYYGISWVRQAPGQGLEWMGWISTYNTNTHYAPSLQGRVTMTTDTSTSTAYMELRSLRSDDTAVYYCARESYYGSGAFRGGMDVWGQGTTVTVSS VL: DIQMTQSPSSLSASVGDRVTITCRASQSVSSYLAWYQQKPGKAPKLLIYDASNRATGVPSRFSGSGSGTDFTLTISSLQPEDFATYYCQQRSNWPWTFGQGTKVEIKR
15 | 3 fold | 15 nM | 49.4 nM | 1.4 fold | 1.23 nM | 1.5 fold | – | – | TL1A-0303 (antibody, human IgG1, kappa, V domains shown, human IgG1 effector-function-minimized/kappa) VH: QVQLVQSGAEVKKPGASVKVSCKASGYDFTYYGIGWVRQAPGQGLEWMGWISTYNTGTHYAPSLQGRVTMTTDTSTSTAYMELRSLRSDDTAVYYCARESYYGSGAHRGGMDVWGQGTTVTVSS VL: DIQMTQSPSSLSASVGDRVTITCRASQSVSSYLAWYQQKPGKAPKLLIYDASNRATGVPSRFSGSGSGTDFTLTISSLQPEDFATYYCQQRSNWPWTFGQGTKVEIKR
